Tests used:
[1] = biological target: T1, HIV-1 reverse transcriptase, subtype B (HIV-1 subtype B strain HXB2, UniProt P04585;P04585 588-1147;588-1027); assay: filter binding
[2] = biological target: T1, HIV-1 reverse transcriptase, subtype B; assay: filter binding; remark: listed apart in the source

B1: 88.1 (6/5AL) aptamer (structured_RNA)
RNA: GGGAAAAGCGAAUCAUACACAAGACAUUGACCAAAAGGGUCGAUAGCGUCGUGUAGAUUGCACCCAUGACUGAGCUACUGCCAAAUCCACCCACGGGCAUAAGGUAUUUAAUUCCAUA
[1]
  Kd: 81 nM

B2: Arbitrary control RNA (ssRNA)
RNA: GGGAAAAGCGAAUCAUACACAAGAAAUUUGGACUUUCCGCCCUUCUUGGCCUUUAUGAGGAUCUCUCUGAUUUUUCUUGCGUCGAGUUUUCCGGGGGCAUAAGGUAUUUAAUUCCAUA
[2]
  binding result: no binding

Reference: publication PMC5449596
